{"source": "patent US20200362024A1", "about": "“BIOLOGICAL MATERIALS AND USES THEREOF” (IMPERIAL INNOVATIONS LIMITED, priority 2009, published 2020)", "molecules": {"B1": {"name": "FBG: recombinant fibrinogen-like globe, 227 amino acid globular domain at the C terminal of tenascin-C (protein)", "chain": "GLLYPFPKDCSQAMLNGDTTSGLYTIYLNGDKAEALEVFCDMTSDGGGWIVFLRRKNGRENFYQNWKAYAAGFGDRREEFWLGLDNLNKITAQGQYELRVDLRDHGETAFAVYDKFSVGDAKTRYKLKVEGYSGTAGDSMAYHNGRSFSTFDKDTDSAITNCALSYKGAFWYRNCHRVNLMGRYGDNNHSQGVNWFHWKGHEHSIQFAEMKLRPSNFRNLEGRRKRA"}}, "key": {"[1]": {"tested_on": "MyD88 deficient mouse embryonic fibroblasts", "test": "Cytokine synthesis in mouse embryonic fibroblasts from MyD88 deficient mice", "assay_type": "cell-based", "conditions": "24 h; FBG 1 μM, PAM3, LPS, TNFα 100 ng/ml, IL-1 5 ng/ml", "text": "(§1) Homozygous MyD88 deficient mice on a C57BL/6 background were provided by the Sanger Institute (Cambridge, UK). Age matched congenic inbred wild type C57B/L6 mice were obtained from Charles River (Margate, UK). For isolation of mouse embryo fibroblasts one female aged 8-10 weeks was mated with two males aged 8-10 weeks. For isolation of bone marrow derived macrophages mice were female and between 10-12 weeks of age at the time of experimentation.\nMEFs express high levels of mRNA of all 9 murine TLRs and are specifically and highly responsive to TLR ligand activation. […] Fibroblasts were cultured at 2×10^4 cells/well in DMEM containing 10% (v/v) FBS and 100 U/ml penicillin/streptomycin in 96-well tissue culture plates for 24 hours before stimulation.\nCells were incubated for 24 hours at 37° C. with the indicated doses of tenascin-C and recombinant tenascin-C fragments (1.0 μM-1.0 nM). Cells were also stimulated where indicated with LPS (1 ng/ml for human macrophages, 10 ng/ml for human fibroblasts, RA membrane cells and HEKs, 100 ng/ml for MEFS and BMDMs and 10 ng/ml for HEKS), PAM3 (10 ng/ml for human macrophages, human fibroblasts, and HEKs, 100 ng/ml for MEFs and BMDMs), murine IL-1 (5 ng/ml for MEFS) and murine TNF-α (100 ng/ml for MEFS). Unless specifically stated otherwise rough LPS was used for in vitro studies.\n(§2) Supernatants were subsequently examined for the presence of the cytokines TNF-α, IL-6, and IL-8 by enzyme-linked immunosorbent assay (ELISA) according to the manufacturer's instructions. Absorbance was read on a spectrophotometric ELISA plate reader (Labsystems Multiscan Biochromic, Vantaa, Finland) and analyzed using the Ascent software program (Thermo Labsystems, Altrincham, UK)."}, "[2]": {"tested_on": "knee joint of TLR2 and TLR4 null mice", "test": "Intra-articular injection of FBG in TLR2 and TLR4 null mice", "assay_type": "in vivo", "conditions": "1 μg FBG intra-articular, 3 days", "text": "as §1, with “Homozygous TLR2 and TLR4 deficient mice on a C57BL/6 background (an inbred strain of mice with a black coat) were obtained from B&K Universal (Hull, UK) Hoshino (1999) and Takeuchi (1999). Homozygous” for “Homozygous”\nWild type mice were anesthetized by intraperitoneal injection of 150 μl of Hypnorm diluted 1:10 in sterile water and then injected with 100 ng, 1 or 3 μg FBG in 10 μl of sterile PBS into the right knee joint using a sterile 33-gauge microcannula. Control mice received an injection of 10 μl PBS alone or were not injected.\nOn days 3 and 7, mice were euthanized, the knee joints were excised and fixed in 10% (volume/volume) buffered formalin, decalcified, with 10% EDTA and processed to paraffin.\nCoronal tissue sections (4 μm) were cut at 7 depths throughout the joint; 80 μm apart and stained with hematoxylin and eosin or Safranin-O to assess joint pathology. Histopathologic changes were scored using the following parameters as described in Van Lent (2006). […]"}, "MyD88": {"tested_on": "MyD88", "test": "FBG induction of IL-6 in RA synovial fibroblasts infected with adenovirus expressing dominant negative MyD88", "assay_type": "cell-based, human", "conditions": "FBG 1 μM, 24 h; GFP control virus without effect", "text": "Recombinant, replication-deficient adenoviral vectors encoding wild type MyD88 (AdMyD88 wt), dominant-negative forms of MyD88 (AdMyD88dn) and the GFP control (AdGFP) were constructed in-house. A description of the synthesis of these viruses is in Andreakos (2004). All viruses used in this study are E1/E3 deleted, belong to the Ad5 serotype. Viruses were propagated in 293 human embryonic kidney cells, purified by ultracentrifugation through two cesium chloride gradients, and viral titers determined by plaque assay as previously described (Sacre (2007)).\nFor adenoviral gene transfer experiments, human RA synovial fibroblasts were incubated with adenoviral vectors at a multiplicity of infection of 100, washed after 2 hours, cultured in complete medium for 24 hours, then stimulated for 24 hours, after which time supernatants were collected.\nas §2"}, "[3]": {"tested_on": "RA synovial membrane cells", "test": "Cytokine synthesis in RA synovial membrane cells stimulated with FBG", "assay_type": "cell-based, human", "conditions": "FBG 1.0-0.01 μM, 24 h, over spontaneous production", "text": "RA membrane cells (representing a mixed population of all synovial cell types) were isolated from synovial membranes obtained from patients undergoing joint replacement surgery as previously described (Brennan (1989)). RA synovial fibroblasts were isolated from the mixed population of RA membrane cells as previously described (Brennan (1989)). The study was approved by the local Trust ethics committee (Riverside NHS Research Committee), and waste tissue (synovium after joint replacement surgery) was obtained only after receiving signed informed consent from the patient and anonymyzing the tissue to protect patient identity.\nImmediately after isolation, RA membrane cells and macrophages were cultured at 1×10^5 cells/well in RPMI 1640 containing 10% (v/v) FBS and 100 U/ml (Units/ml) penicillin/streptomycin in 96-well tissue culture plates for 24 hours before stimulation. […]\nas §2"}}}
{"molecule": "B1", "values": [{"measurement": "cytokine synthesis in embryonic fibroblasts with targeted deletion of MyD88", "setting": "[1]", "result": "does not stimulate"}, {"measurement": "joint inflammation in TLR2 null mice", "setting": "[2]", "result": "able to induce"}, {"measurement": "induction of IL-6 in synovial fibroblasts expressing dominant negative MyD88", "setting": "MyD88", "result": "abolished"}, {"measurement": "synthesis of IL-6, IL-8 and TNF-α in RA synovial membranes", "setting": "[3]", "result": "further enhanced"}]}
